The test addresses T1, human urotensin II receptor (hUT), stably expressed in HEK 293 cells (human) (UniProt Q9UKP6).
T1 sequence: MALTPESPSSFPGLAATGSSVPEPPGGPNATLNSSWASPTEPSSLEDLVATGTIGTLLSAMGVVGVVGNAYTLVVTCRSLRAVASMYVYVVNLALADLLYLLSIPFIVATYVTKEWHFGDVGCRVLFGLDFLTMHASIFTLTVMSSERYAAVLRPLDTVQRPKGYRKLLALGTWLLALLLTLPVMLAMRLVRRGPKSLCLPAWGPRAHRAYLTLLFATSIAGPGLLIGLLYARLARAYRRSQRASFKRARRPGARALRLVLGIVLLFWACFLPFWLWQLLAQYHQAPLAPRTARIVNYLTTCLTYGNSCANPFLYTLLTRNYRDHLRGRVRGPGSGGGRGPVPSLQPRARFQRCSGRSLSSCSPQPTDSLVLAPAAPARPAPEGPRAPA

Consider human urotensin II (ligand), for which the Emax of β-arrestin 2 conformational change (BRET biosensor), HEK 293-hUT cells worked out at 100%.

The values above are taken from doi:10.1101/2020.11.23.394270.
